From PMC12111007, “Potential of Hyperthermophilic L-Asparaginase from Thermococcus sibiricus to Mitigate Dietary Acrylamide Assessed Using a Simplified Food System” (Foods, 2025)

Substrate: NC(=O)C[C@H](N)C(=O)O
Experiment: direct Nesslerization (ammonia release)
Type: biochemical, Thermococcus sibiricus
Settings: 90 °C, substrate not named beside the constant, taken as L-asparagine, pH not stated for the kinetics

B1: TsAI (hyperthermophilic L-asparaginase from Thermococcus sibiricus) (Thermococcus sibiricus MM 739) (protein)
chain: MKKLLIIGTGGTIASAKTEQGYKSVLKIDEILKLAKIKLENGYKIDSTNIMNIDSTLIHPEDWEIIAKEVFKALDDYDGIIITHGTDTLAYTASMLSFMIKNPNKPIVLTGSMLPITENGSDAPRNIRTAIKFAMEDVAGVFVAFMDKIMLGCRTSKVRTLGLNAFMSINYPDVAYVKGEKILYNIPKEKFQPNGSPELDTKYEPRVVVLRVTPGLGGEIIDAVLDAGYKGIVLEGYGAGGLPYRKSNLLSKIKEITPKIPVIMTTQALYDGVDMRKYEVGRKALETGIIPAKDMTKEATITKLMWALGHTKDVEKIREIMHTNYVNEIKS
For B1, the Km was 3.8 mM.
